Columns and labels:
[1] = biological target: PKA substrate (modified Kemptide containing a consensus phosphorylation site for Protein Kinase A) C-terminally tagged with the yellow fluorescent protein YPet; test: cell-based or functional assay
[2] = biological target: PKC substrate C-terminally tagged with the yellow fluorescent protein YPet; test: cell-based or functional assay

- increase in yellow/cyan emission ratio (intermolecular FRET) after Forskolin in 1205-Lu cells co-expressing both constructs [1]: 60%
- increase in yellow/cyan emission ratio (intermolecular FRET) after PMA in 1205-Lu cells co-expressing both constructs [2]: 30%
Substance: FHA1 (forkhead associated domain 1 of the yeast protein Rad53) tagged at its N-terminus with the cyan fluorescent protein Cerulean (from UniProt P22216 22-162)
